Test results reported in US20160272693A1 (ZEALAND PHARMA A S, published 2016).
*1 amine or outer side, *2 acyl side, *3 side chain or, on linkers, in order; H or OH if unused. Bridges are numbered along the chain shown (N, C = ends). [ ]: non-standard residue; d: D form. The star is where a group is joined. C20 diacid = O=C(O)CCCCCCCCCCCCCCCCCCC(=O)*; γGlu = O=C(O)[C@H](CCC(=O)[*:2])N[*:1]; Hyp = O=C(O)[C@@H]1C[C@@H](O)CN1; NMeI = CC[C@H](C)[C@H](NC)C(=O)O; Aad = N[C@@H](CCCC(=O)O)C(=O)O; Sar = CNCC(=O)O

T1: human amylin receptor 3 (hAMYR3), hCTR2 co-expressed with human receptor activity modifying protein 3 (hRAMP3) (human, UniProt P30988 25-474; O60896 24-148)
T1 sequence (looked up) 1: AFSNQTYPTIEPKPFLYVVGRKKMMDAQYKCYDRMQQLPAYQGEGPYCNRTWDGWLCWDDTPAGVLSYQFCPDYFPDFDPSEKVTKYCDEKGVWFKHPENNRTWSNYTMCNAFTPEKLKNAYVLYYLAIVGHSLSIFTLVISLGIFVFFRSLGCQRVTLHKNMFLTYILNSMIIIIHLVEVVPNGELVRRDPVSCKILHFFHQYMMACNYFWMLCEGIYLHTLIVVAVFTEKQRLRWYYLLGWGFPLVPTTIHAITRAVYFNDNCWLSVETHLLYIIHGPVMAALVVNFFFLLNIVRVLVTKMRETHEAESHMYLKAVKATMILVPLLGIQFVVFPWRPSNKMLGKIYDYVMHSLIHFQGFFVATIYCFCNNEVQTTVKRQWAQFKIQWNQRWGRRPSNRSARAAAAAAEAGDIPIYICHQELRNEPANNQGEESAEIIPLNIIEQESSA
T1 sequence (looked up) 2: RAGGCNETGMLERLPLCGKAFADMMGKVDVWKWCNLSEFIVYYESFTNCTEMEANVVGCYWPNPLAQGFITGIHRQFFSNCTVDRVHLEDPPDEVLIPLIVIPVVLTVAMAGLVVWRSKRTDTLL

B1: [19CD]-isoGlu-R-C( )-NTAT-C( )-ATQRLAHFLQRSSF-Gly(Me)-A-Ile(Me)-LSSTEVGSSTP-NH2 (Compd. 85) (peptide)
peptide: {C20 diacid}-[γGlu]RCNTATCATQRLAHFLQRSSF[Sar]A[NMeI]LSSTEVGSSTP-NH2
modifications: disulfide 3-8
SMILES: CC[C@H](C)[C@@H](C(=O)N[C@@H](CC(C)C)C(=O)N[C@@H](CO)C(=O)N[C@@H](CO)C(=O)N[C@H](C(=O)N[C@@H](CCC(=O)O)C(=O)N[C@H](C(=O)NCC(=O)N[C@@H](CO)C(=O)N[C@@H](CO)C(=O)N[C@H](C(=O)N1CCC[C@H]1C(N)=O)[C@@H](C)O)C(C)C)[C@@H](C)O)N(C)C(=O)[C@H](C)NC(=O)CN(C)C(=O)[C@H](Cc1ccccc1)NC(=O)[C@H](CO)NC(=O)[C@H](CO)NC(=O)[C@H](CCCNC(=N)N)NC(=O)[C@H](CCC(N)=O)NC(=O)[C@H](CC(C)C)NC(=O)[C@H](Cc1ccccc1)NC(=O)[C@H](Cc1c[nH]cn1)NC(=O)[C@H](C)NC(=O)[C@H](CC(C)C)NC(=O)[C@H](CCCNC(=N)N)NC(=O)[C@H](CCC(N)=O)NC(=O)[C@@H](NC(=O)[C@H](C)NC(=O)[C@@H]1CSSC[C@H](NC(=O)[C@H](CCCNC(=N)N)NC(=O)CC[C@H](NC(=O)CCCCCCCCCCCCCCCCCCC(=O)O)C(=O)O)C(=O)N[C@@H](CC(N)=O)C(=O)N[C@@H]([C@@H](C)O)C(=O)N[C@@H](C)C(=O)N[C@@H]([C@@H](C)O)C(=O)N1)[C@@H](C)O
B2: [19CD]-isoGlu-R-C( )-NTAT-C( )-ATQRLA-Aad-FLQRSSF-Gly(Me)-A-Ile(Me)-LSSTEVGSNT-Hyp-NH2 (Compd. 86) (peptide)
peptide: {C20 diacid-γGlu}-RCNTATCATQRLA[Aad]FLQRSSF[Sar]A[NMeI]LSSTEVGSNT[Hyp]-NH2
modifications: disulfide 2-7
SMILES: CC[C@H](C)[C@@H](C(=O)N[C@@H](CC(C)C)C(=O)N[C@@H](CO)C(=O)N[C@@H](CO)C(=O)N[C@H](C(=O)N[C@@H](CCC(=O)O)C(=O)N[C@H](C(=O)NCC(=O)N[C@@H](CO)C(=O)N[C@@H](CC(N)=O)C(=O)N[C@H](C(=O)N1C[C@H](O)C[C@H]1C(N)=O)[C@@H](C)O)C(C)C)[C@@H](C)O)N(C)C(=O)[C@H](C)NC(=O)CN(C)C(=O)[C@H](Cc1ccccc1)NC(=O)[C@H](CO)NC(=O)[C@H](CO)NC(=O)[C@H](CCCNC(=N)N)NC(=O)[C@H](CCC(N)=O)NC(=O)[C@H](CC(C)C)NC(=O)[C@H](Cc1ccccc1)NC(=O)[C@H](CCCC(=O)O)NC(=O)[C@H](C)NC(=O)[C@H](CC(C)C)NC(=O)[C@H](CCCNC(=N)N)NC(=O)[C@H](CCC(N)=O)NC(=O)[C@@H](NC(=O)[C@H](C)NC(=O)[C@@H]1CSSC[C@H](NC(=O)[C@H](CCCNC(=N)N)NC(=O)CC[C@H](NC(=O)CCCCCCCCCCCCCCCCCCC(=O)O)C(=O)O)C(=O)N[C@@H](CC(N)=O)C(=O)N[C@@H]([C@@H](C)O)C(=O)N[C@@H](C)C(=O)N[C@@H]([C@@H](C)O)C(=O)N1)[C@@H](C)O
B3: [19CD]-isoGlu-R-C( )-NTAT-C( )-ATQRLAHFLERSSF-Gly(Me)-A-Ile(Me)-LSSTEVGSSTP-NH2 (Compd. 84) (peptide)
peptide: {C20 diacid-γGlu}-RCNTATCATQRLAHFLERSSF[Sar]A[NMeI]LSSTEVGSSTP-NH2
modifications: disulfide 2-7
SMILES: CC[C@H](C)[C@@H](C(=O)N[C@@H](CC(C)C)C(=O)N[C@@H](CO)C(=O)N[C@@H](CO)C(=O)N[C@H](C(=O)N[C@@H](CCC(=O)O)C(=O)N[C@H](C(=O)NCC(=O)N[C@@H](CO)C(=O)N[C@@H](CO)C(=O)N[C@H](C(=O)N1CCC[C@H]1C(N)=O)[C@@H](C)O)C(C)C)[C@@H](C)O)N(C)C(=O)[C@H](C)NC(=O)CN(C)C(=O)[C@H](Cc1ccccc1)NC(=O)[C@H](CO)NC(=O)[C@H](CO)NC(=O)[C@H](CCCNC(=N)N)NC(=O)[C@H](CCC(=O)O)NC(=O)[C@H](CC(C)C)NC(=O)[C@H](Cc1ccccc1)NC(=O)[C@H](Cc1c[nH]cn1)NC(=O)[C@H](C)NC(=O)[C@H](CC(C)C)NC(=O)[C@H](CCCNC(=N)N)NC(=O)[C@H](CCC(N)=O)NC(=O)[C@@H](NC(=O)[C@H](C)NC(=O)[C@@H]1CSSC[C@H](NC(=O)[C@H](CCCNC(=N)N)NC(=O)CC[C@H](NC(=O)CCCCCCCCCCCCCCCCCCC(=O)O)C(=O)O)C(=O)N[C@@H](CC(N)=O)C(=O)N[C@@H]([C@@H](C)O)C(=O)N[C@@H](C)C(=O)N[C@@H]([C@@H](C)O)C(=O)N1)[C@@H](C)O

molecular target: T1, human amylin receptor 3 (hAMYR3), hCTR2 …; test: cell-based or functional assay

hAMYR3 EC50 (nM); cAMP induction [nM] | Binder
0.14 | B1
0.15 | B2
0.54 | B3
